According to patent US20220275357A1, “CAPSULE PROTEIN AND MULTIMERIC COMPLEX COMPOSITION THEREOF, AND PHARMACEUTICAL COMPOSITION USING SAME” (UNIVERSITY PUBLIC CORPORATION OSAKA, priority 2019, published 2022):

What was measured:
Assay type in all cases: physicochemical
[1] = Equilibrium dialysis of dipyridamole-loaded capsule proteins (holding force); settings: dipyridamole encapsulated instead of SN-38, external solution PBS, FIG. 10
Method: (§1) With a dialysis membrane (Dialysis Membrane, Size 27 Wako molecular weight cut-off: 14,000), each 5 mL of samples was each dialyzed against 150 mL of PBS as an external solution in an incubator at 37° C. for 72 hours. Each of the samples included the solution of SN-38/mutant L-PGDS, SN-38/barrier-attached D-clip mutant or SN-38/targeting barrier-attached D-clip mutant. The samples were prepared to contain 50 uM of SN-38 and 50 uM of the respective capsule proteins.
(§2) At 0, 1, 3, 6, 8, 12, 24, 36, 48, 60, and 72 hours after the start of dialysis, 500 μL of the external solution was sampled, and the same amount of PBS was added instead. SN-38 concentration in the sampled external solutions was measured with a fluorescence spectrophotometer F-7000 (HITACHI; excitation wavelength: 365 nm; measuring wavelength: 380 to 600 nm; and monitoring temperature: 37° C.).
Dipyridamole is a poorly water-soluble antianginal drug. The external solution was PBS. Referring to FIG. 10, the horizontal and the left vertical axes represent the reaction time (hr) and dipyridamole concentration (nM), respectively. In addition, the right vertical axis represents the release rate (%), or a value converted from the concentration on the left vertical axis.

[2] = Size measurement by small-angle X-ray scattering (SAXS); settings: 25° C.; for Rg: radius of gyration from Guinier region
Method: Size of the obtained octameric composition was measured by small-angle X-ray scattering (SAXS). For comparison, size of the mutant L-PGDS was also measured.
SAXS data collection was carried out at BL40B2, a beamline in the SPring-8 synchrotron radiation facility (Sayo-gun, Hyogo). The X-ray wavelength was tuned to 1.000 A (angstrom), the sample-to-detector distance was set to 2.193 m, and the experiments were performed at 25° C. The exposure times for each measurement were 20 to 50 s. Scattering intensity was recorded with PILATUS-2M (RIGAKU, Tokyo) as a detector.
A sample cell with a thickness of 3.0 mm was used to maximize scattering of X-ray. The windows of the cell were made of 0.02 mm thick quartz plates. To avoid systematic errors, the inventor measured the sample (protein) and buffer solutions alternately. 25 μL of a sample solution was placed in the cell for its data collection. The solution was removed from the cell; and the cell was then washed 3 times with a buffer solution before data collection of the next sample solution.
Two-dimensionally recorded scattering patterns of the protein sample and the buffer solutions were transformed to a one-dimensional profile by circular averaging. Contributions to scattering intensities from the solvent were eliminated from the raw data of the sample solutions by subtracting the intensity profile obtained for the buffer solution. Scattering profiles in the small-angle region were analyzed by Guinier's approximation for monodispersive systems: The scattering intensity (I (S,C)) as a function of reciprocal vector (S) and protein concentration (C), is expressed by the forward scattering intensity (I(0,C)) and the radius of gyration Rg(C) (See the following formula (1)).
wherein, 2θ represents the scattering angle relative to the incident beam, and λ represents the X-ray wavelength.
The radius of gyration Rg for each sample solution was calculated from Guinier region in its scattering profile. […]

[3] = Drug releasing capacity: equilibrium dialysis of SN-38-loaded capsule proteins
Method: as §1, §2
Subsequently, drug release function in response to a reducing environment of the barrier-attached D-clip mutant and the targeting barrier-attached D-clip mutant was evaluated by equilibrium dialysis method in the same manner as described above. PBS and 10 mM DTT/PBS solutions were used as the external solutions for dialysis. The external PBS and 10 mM DTT/PBS solutions simulated oxidizing and reducing environments, respectively.
The horizontal axis represents reaction time (hr), and the vertical axis represents SN-38 concentration (nM). Error bars represent the standard error of the mean, or mean±standard error (n=3). The abbreviations or symbols in the figure have the following meanings: “SN-38/L-PGDS” or “●” represents SN-38/mutant L-PGDS; “SN-38/Capsule” or “▴” represents SN-38/barrier-attached D-clip mutant; and “SN-38/Cap-sCRGDK” or “▪” represents SN-38/targeting barrier-attached D-clip mutant. The symbols “Δ” and “□” with“+10 mM DTT” represent the results of the pharmaceutical compositions, i.e.“SN-38/Capsule” and “SN-38/Cap-sCRGDK” in the presence of 10 mM DTT, respectively. The addition of DTT (Dithiothreitol) allows the solutions to have a strong reducing environment. […]

Molecule	dipyridamole concentration in external solution [1]	Dmax [2] [nm]	Rg ([2]; listed as Monomer) [nm]	Rg ([2]; listed as monomer (mutant L-PGDS)) [nm]	concentration of SN-38 in the external DTT/PBS solution ([3]; 10 mM DTT/PBS, reached within shorter reaction time, then almost a plateau, FIG. 9(a)) [nM]	SN-38 concentration in the external DTT/PBS solution ([3]; 10 mM DTT/PBS, at the first 48 hours of dialysis, FIG. 9(b))	concentration of SN-38 in the external solution PBS ([3]; PBS, at the end of the monitoring period, FIG. 9(b)) [nM]
mutant L-PGDS: human L-PGDS variant SEQ ID NO: 2 with C45A and C147A substitutions, GS added to N-terminus (protein, N-terminal GS added; Enzyme inactivation Mutant) GSAPEAQVSVQPNFQQDKFLGRWFSAGLASNSSWLREKKAALSMAKSVVAPATDGGLNLTSTFLRKNQCETRTMLLQPAGSLGSYSYRSPHWGSTYSVSVVETDYDQYALLYSQGSKGPGEDFRMATLYSRTQTPRAELKEKFTAFAKAQGFTEDTIVFLPQTDKCMTEQ	increased over the reaction time	4.75	1.8 ± 0.04	1.8±0.04	2000		
barrier-attached mutant (protein, Barrier Mutant) GSAPEAQVSVQPNFQQDKFLGRWFSAGLASNSSWLREKKAALSMAKSVVAPATDGGLNLTSTFLRKNQCETRTWLLQPAGSLGSYSYRSPHWGSTYSVSVVETDYDQYALLYSQGSKGPGEDFRMATLYSRTQTPRAELKEKFTAFAKAQGFTEDTIVFLPQTDKCMTEQ	increased only to the vicinity of the detection limit					approximately 2.0 μM	≤ 1000
